Paper PMC12817929

Target: HEV-ORF2 mutant lacking all three KFERQ-like motifs (ORF2ΔCMA) (hepatitis E virus genotype 3 (HEV-3), KernowC1-p6 strain)
Assay: co-IP; HEK-293T transfected with plasmids for HSC70 and GRP75 together with WT ORF2 or ORF2ΔCMA for 48 h, NP-40 lysis, IP with Mab-2G8, blots for HSC70 and GRP75

Substance “GRP75 expressed from plasmid in HEK-293T cells together with HSC70 and ORF2 (tag not stated) (from UniProt P38646 47-679) (natural protein)” has a decrease of co-precipitated GRP75 against wild-type ORF2 of 50%.
